{
  "source": "paper PMC4865804",
  "key": {"[1]": {"molecular_target": "extrinsic tenase complex (FVIIa/TF_(PCPS)), the [E] complex (human) (UniProt P13726)", "test": "enzyme inhibition kinetics (mixed-type fit, secondary plots); FX activation by FVIIa (10 pM) in complex with recombinant human TF (Innovin); FX 0.58-50 nM; ringhalexin 50-150 nM; 50 mM HEPES pH 7.4, 140 mM NaCl, 5 mM CaCl2, 1% BSA, 37 °C; FXa read by hydrolysis of 500 μM S-2222 at 405 nm"}, "[2]": {"molecular_target": "[ES] complex (FVIIa/TF_(PCPS)/FX) (UniProt P13726)", "test": "enzyme inhibition kinetics (mixed-type fit, secondary plots); FX activation by FVIIa (10 pM) in complex with recombinant human TF (Innovin); FX 0.58-50 nM; ringhalexin 50-150 nM; 50 mM HEPES pH 7.4, 140 mM NaCl, 5 mM CaCl2, 1% BSA, 37 °C; FXa read by hydrolysis of 500 μM S-2222 at 405 nm"}, "[3]": {"molecular_target": "extrinsic tenase complex (FVIIa/TF_(PCPS)), the [E] complex (human) (UniProt P13726)"}},
  "data": [
    {"binder": "ringhalexin (Ringhals extrinsic tenase complex inhibitor) (natural protein) RLCLSDYSIFSETIEICPEGHNYCFKKFPKGITRLPWVIRGCAATCPKPEAQVYVDCCARDKCNR", "values": [
      {"measurement": "Ki", "setting": "[1]", "result": 84.2, "unit": "nM"},
      {"measurement": "Ki' (inhibitor constant for the [ES] complex)", "setting": "[2]", "result": 152, "unit": "nM"},
      {"measurement": "inhibition of FX activation by the reconstituted extrinsic tenase complex (FXa formed, measured by S-2222 hydrolysis); ringhalexin 100 pM to 3 μM, FX 30 nM", "setting": "[3]", "result": 124, "unit": "nM"}
    ]}
  ]
}
